In patent US10100120B2, “Antibody which specifically binds to human CRTH2” (KYOWA HAKKO KIRIN CO., LTD, priority 2015, dated 2018):

Experiments:
[1] = target: T1, mutated human CRTH2 with amino acid substitution (Homo sapiens, UniProt Q9Y5Y4, G192A); assay: Epitope analysis using CHO-S cells which express mutated human CRTH2 with amino acid substitution; assay type: binding; conditions: mutant G192A; antibody 10 μg/mL; relative to wild-type = 100%
T1 construct: inserting genes encoding various mutants with amino acid substitution obtained by deleting termination codons; expressed in transfected cells; host or cells: CHO-S cells (Lifetechnologies), transient (phmAG1-MNLinker vector)
T1 sequence (Q9Y5Y4 1-395 G192A): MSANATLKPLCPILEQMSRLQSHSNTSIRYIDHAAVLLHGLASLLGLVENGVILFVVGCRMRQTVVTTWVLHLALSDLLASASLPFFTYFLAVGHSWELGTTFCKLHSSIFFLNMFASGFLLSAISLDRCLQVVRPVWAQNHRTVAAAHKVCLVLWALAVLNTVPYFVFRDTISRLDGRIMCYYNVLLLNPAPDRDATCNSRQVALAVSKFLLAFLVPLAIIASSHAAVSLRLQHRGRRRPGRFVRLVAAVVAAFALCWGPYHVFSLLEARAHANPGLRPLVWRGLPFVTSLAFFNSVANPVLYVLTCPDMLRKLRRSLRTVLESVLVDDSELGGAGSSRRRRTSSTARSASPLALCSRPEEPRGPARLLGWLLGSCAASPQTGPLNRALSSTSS
Experimental: (§1) A mutant with amino acid substitution expression vector obtained by partially substituting amino acid residues in an extracellular region with other amino acid residues among the amino acid sequences of human CRTH2 was prepared. Specifically, mutant with amino acid substitution expression vectors obtained by substitution of S2A; N4A; T6A and L7A; K8A, P9A, and L10A; P12A, L14A, and EISA; Q16E, R19H, and Q21R; H23A, S24A, and N25A; T26A, S27A, and I28A; D171A, T172A, and I173A; S174A, R175A, and L176A; D177A, G178A, and R179A; 1180A and M181A; Y183A, Y184A, and N185A; L187A, L188A, and L189A; N190A; P191A; G192A; P193A; D194A; R195A; D196A, and T198A; N275A, G277A, and L278A; P276A; P279A and L281A; P280A; or V282A, R283A, and R284A in the amino acid sequences represented by SEQ ID NO: 2 were respectively prepared. It should be noted that the above symbols in the amino acid substitution indicate [single letter code of an amino acid residue before substitution] [substitution position counting from the N terminal] [single letter code of the amino acid reside after substitution].
(§2) Azami-Green tag was added to the intercellular C terminal region by inserting genes encoding various mutants with amino acid substitution obtained by deleting termination codons to the restriction enzyme sites of BamHI and HindIII using phmAG1-MNLinker (MBL) as expression vectors.
(§3) The above-described vectors expressing mutants with amino acid substitution were prepared using 1) a method of entirely synthesizing gene sequences encoding mutants with amino acid substitution and inserting the gene sequences into a vector or 2) a method of performing site-specific mutation from a vector into which DNA which encodes the amino acid sequences of wild-type human CRTH2 represented by SEQ ID NO: 1 was inserted.
(§4) CHO-S cells (Lifetechnologies) were used for preparing mutated human CRTH2 with amino acid substitution expressing cell lines. Free style CHO expression medium (Invitrogen) containing 8 mM L-Glutamine (Invitrogen) was used for subculturing cells and the cells were cultured by shaking under the conditions of 37° C. in the presence of 5% CO2.
(§5) 25 μg of the mutated human CRTH2 with amino acid substitution expression vector prepared in (1) described above was dissolved in 400 μL of Opti-Pro SFM (Invitrogen) and 25 μL of a Freestyle MAX Reagent (Invitrogen) was dissolved in 400 μL of Opti-Pro SFM and each of them were allowed to stand at room temperature for 5 minutes. The two liquids were mixed with each other and allowed to stand at room temperature for 15 minutes. The mixed solution was added to the CHO-S culture solution and the cells were cultured for 24 hours, thereby obtaining cell lines which express mutated human CRTH2 with amino acid substitution.
(§6) The CHO-S cells which express mutated human CRTH2 with amino acid substitution established in (2) were washed with SM, seeded in a 96-well plate such that one well has 2×10^5 cells, and centrifuged at 1700 rpm for 2 minutes. After the supernatant was removed, chLym2, LV0HV1, the anti-human CRTH2 antibody hu19A2 v52, hu8B1 v1, ch3C12, or ch31A5 prepared in Example 9, or a commercially available anti-human CRTH2 antibody BM16 (Santa Cruz) prepared to have a concentration of 10 μg/mL using SM was added thereto to cause a reaction at 4° C. for 1 hour.
(§7) After the cells were washed, goat anti-Human IgG Alexa 647 (Molecular Probes) diluted with SM was added to wells to which chLym2, LV0HV1, hu19A2 v52, hu8B1 v1, ch3C12, or ch31A5 was added and goat anti-Rat IgG Alexa 647 (Molecular Probes) diluted with SM was added to wells to which BM16 was added at a final concentration of 10 μg/mL to cause a reaction at 4° C. for 1 hour.
(§8) After the reaction, the cells were washed and suspended with SM, and the fluorescent intensity was analyzed by flow cytometry (BD Biosciences, FACS CantoII). […]

[2] = target: T2, mutated human CRTH2 with amino acid substitution (Homo sapiens, UniProt Q9Y5Y4, I180A/M181A); assay: as above; assay type: binding; conditions: mutant I180A and M181A; antibody 10 μg/mL; relative to wild-type = 100%
T2 construct: inserting genes encoding various mutants with amino acid substitution obtained by deleting termination codons; expressed in transfected cells; host or cells: CHO-S cells (Lifetechnologies), transient (phmAG1-MNLinker vector)
T2 sequence (Q9Y5Y4 1-395 I180A/M181A): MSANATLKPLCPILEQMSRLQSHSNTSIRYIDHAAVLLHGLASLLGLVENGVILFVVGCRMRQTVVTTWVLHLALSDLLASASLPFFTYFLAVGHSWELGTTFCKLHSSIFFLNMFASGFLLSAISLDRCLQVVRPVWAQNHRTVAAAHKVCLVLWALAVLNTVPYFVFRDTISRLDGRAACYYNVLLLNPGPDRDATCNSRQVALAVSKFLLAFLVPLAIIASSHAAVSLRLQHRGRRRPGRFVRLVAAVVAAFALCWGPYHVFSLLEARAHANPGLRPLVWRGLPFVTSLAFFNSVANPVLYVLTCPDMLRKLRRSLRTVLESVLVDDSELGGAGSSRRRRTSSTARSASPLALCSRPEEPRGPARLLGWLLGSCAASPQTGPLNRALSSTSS
Experimental: as §1, §2, §3, §4, §5, §6, §7, §8

B1: LV0HV1: humanized Lym2 antibody, VL LV0 (SEQ ID NO: 33), VH HV1 (SEQ ID NO: 51) (antibody, V domains shown)
VH: EVQLVESGGGVVQPGRSLRLSCAASGFTFSNYYMAWVRQAPGKGLEWVATISYDGSSTYYRDSVKGRFTISRDNAKNSLYLQMNSLRAEDTATYYCARHRGYYYSGAGYFDYWGQGTMVTVSS
VL: DIVMTQTPLSLPVTPGESASISCRSSQSLEYSDGYTYLEWYLQKPGQSPQVLIYGVSNRFSGVPDRFSGSGSGTDFTLKISRVEAEDVGVYYCFQATHDPLTFGQGTKLEIK
reactivity against cells expressing mutated human CRTH2 [1]: lost | reactivity against cells expressing mutated human CRTH2 [2]: lost
